Ends that are not written are not given here.
B1: Peptide 3 RLLGIC (peptide)
peptide: RLLGIC
B2: Peptide 6 DEAYVMAGVGSPYVSRLLGIC (peptide)
peptide: DEAYVMAGVGSPYVSRLLGIC
B3: Peptide 7 SVGNPHVC (peptide)
peptide: SVGNPHVC
B4: Peptide 8 NHVPSDVC (scrambled peptide) (peptide)
peptide: NHVPSDVC
modifications: not fully specified
B5: Peptide 4 GVGSPYVS (peptide)
peptide: GVGSPYVS
B6: Peptide 2 SVDNPHVC (Disruptin) (peptide)
peptide: SVDNPHVC
modifications: not fully specified
B7: Peptide 1 DEAYVMA (peptide)
peptide: DEAYVMA

Biological target: Heat Shock Protein 90 (HSP90), endogenous, in human cell lines (human, UniProt P07900 2-732)
Assay: cell-based or functional assay

| Binder | clonogenic survival of UMSCC1 cells (Survival Fraction), peptide delivered with Chariot [survival fraction] |
| --- | --- |
| B1 | 0.85 |
| B2 | 1 |
| B3 | 0.97 |
| B4 | 1 |
| B5 | 1 |
| B6 | 0.77 |
| B7 | 0.93 |
